From patent US20190134153A1, “IMMUNOMODULATORY EFFECT OF INHALED KINASE INHIBITOR PEPTIDES IN LUNG” (MOERAE MATRIX, INC., priority 2017, published 2019)

Experiments:
Assay in all cases: Kinase Profiling Assay
Type in all cases: biochemical
Details in all cases: 100 μM
PKBβ(h) = PKBβ(h) (Homo sapiens, UniProt P31751)
EphA1(h) = target: T1, EphA1(h) (Homo sapiens, UniProt P21709)
T1 sequence (P21709 26-976): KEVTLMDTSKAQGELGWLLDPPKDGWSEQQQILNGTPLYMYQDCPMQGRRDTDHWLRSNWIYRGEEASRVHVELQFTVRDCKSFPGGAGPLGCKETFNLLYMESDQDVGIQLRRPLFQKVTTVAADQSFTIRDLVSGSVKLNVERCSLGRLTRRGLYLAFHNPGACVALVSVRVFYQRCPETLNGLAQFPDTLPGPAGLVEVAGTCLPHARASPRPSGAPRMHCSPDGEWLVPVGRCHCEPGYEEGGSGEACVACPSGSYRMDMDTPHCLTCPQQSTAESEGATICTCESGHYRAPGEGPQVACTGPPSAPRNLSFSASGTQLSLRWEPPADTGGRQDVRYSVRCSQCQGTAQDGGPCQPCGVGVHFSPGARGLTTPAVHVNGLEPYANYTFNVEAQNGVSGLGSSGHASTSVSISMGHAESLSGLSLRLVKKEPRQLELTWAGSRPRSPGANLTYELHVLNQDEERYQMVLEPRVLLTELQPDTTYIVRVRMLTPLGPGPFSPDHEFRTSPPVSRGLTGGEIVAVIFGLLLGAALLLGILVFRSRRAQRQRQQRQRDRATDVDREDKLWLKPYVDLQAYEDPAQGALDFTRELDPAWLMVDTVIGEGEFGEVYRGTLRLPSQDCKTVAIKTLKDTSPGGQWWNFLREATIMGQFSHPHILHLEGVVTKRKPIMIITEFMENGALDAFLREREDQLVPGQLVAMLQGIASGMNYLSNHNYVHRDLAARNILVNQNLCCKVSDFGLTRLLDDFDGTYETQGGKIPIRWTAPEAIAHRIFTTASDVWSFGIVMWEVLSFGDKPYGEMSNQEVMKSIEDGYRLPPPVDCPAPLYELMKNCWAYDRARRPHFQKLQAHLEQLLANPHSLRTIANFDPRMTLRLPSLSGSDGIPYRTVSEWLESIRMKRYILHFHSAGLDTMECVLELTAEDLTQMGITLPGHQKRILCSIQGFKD

PKCδ(h) = PKCδ(h) (Homo sapiens, UniProt Q05655)
PKCδ(h), sequence (Q05655 whole entry): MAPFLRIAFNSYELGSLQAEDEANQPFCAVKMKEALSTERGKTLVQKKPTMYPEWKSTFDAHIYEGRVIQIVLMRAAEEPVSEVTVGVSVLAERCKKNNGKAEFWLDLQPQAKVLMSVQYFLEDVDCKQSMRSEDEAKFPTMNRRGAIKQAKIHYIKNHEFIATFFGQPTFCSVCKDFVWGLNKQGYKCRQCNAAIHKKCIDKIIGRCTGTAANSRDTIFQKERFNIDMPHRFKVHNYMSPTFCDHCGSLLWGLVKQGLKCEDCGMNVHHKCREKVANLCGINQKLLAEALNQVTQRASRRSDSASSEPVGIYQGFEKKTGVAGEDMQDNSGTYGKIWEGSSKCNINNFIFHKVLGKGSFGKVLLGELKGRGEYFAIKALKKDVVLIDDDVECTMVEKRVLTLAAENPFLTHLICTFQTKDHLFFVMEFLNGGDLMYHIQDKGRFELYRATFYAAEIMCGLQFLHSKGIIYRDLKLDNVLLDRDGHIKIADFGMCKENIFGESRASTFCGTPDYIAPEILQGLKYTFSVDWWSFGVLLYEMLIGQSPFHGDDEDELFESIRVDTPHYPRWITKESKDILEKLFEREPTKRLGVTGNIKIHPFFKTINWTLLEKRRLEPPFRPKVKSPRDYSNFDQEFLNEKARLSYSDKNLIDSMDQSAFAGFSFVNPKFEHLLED

IGF-1R(h), activated = IGF-1R(h), activated (Homo sapiens, UniProt P08069)
BrSK2(h) = target: T2, BrSK2(h) (Homo sapiens, UniProt Q8IWQ3)
T2 sequence (Q8IWQ3 1-736): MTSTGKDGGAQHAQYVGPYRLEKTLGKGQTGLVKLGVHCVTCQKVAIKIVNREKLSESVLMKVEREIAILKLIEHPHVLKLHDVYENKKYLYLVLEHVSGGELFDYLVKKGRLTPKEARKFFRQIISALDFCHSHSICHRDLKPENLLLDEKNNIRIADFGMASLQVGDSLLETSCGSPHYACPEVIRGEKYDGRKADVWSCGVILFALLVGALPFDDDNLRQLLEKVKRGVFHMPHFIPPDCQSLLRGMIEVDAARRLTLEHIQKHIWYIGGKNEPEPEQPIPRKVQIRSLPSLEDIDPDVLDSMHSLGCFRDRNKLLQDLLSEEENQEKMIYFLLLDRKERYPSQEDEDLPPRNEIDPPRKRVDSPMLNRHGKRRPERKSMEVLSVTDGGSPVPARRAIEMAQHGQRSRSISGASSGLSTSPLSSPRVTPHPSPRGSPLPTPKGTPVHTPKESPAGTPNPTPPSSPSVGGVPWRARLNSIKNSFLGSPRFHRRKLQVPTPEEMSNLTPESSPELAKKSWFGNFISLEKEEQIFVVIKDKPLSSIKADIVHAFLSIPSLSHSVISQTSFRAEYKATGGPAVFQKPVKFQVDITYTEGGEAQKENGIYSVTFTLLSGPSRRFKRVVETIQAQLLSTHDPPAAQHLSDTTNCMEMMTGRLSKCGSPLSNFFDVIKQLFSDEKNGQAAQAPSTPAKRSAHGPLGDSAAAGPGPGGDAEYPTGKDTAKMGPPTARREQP

Met(D1246N)(h) = Met(D1246N)(h) (Homo sapiens, UniProt P08581, D1228N)
mTOR/FKBP12(h) = mTOR/FKBP12(h) (Homo sapiens, UniProt P42345)
mTOR/FKBP12(h), sequence (P42345 1362-2549 limits assumed): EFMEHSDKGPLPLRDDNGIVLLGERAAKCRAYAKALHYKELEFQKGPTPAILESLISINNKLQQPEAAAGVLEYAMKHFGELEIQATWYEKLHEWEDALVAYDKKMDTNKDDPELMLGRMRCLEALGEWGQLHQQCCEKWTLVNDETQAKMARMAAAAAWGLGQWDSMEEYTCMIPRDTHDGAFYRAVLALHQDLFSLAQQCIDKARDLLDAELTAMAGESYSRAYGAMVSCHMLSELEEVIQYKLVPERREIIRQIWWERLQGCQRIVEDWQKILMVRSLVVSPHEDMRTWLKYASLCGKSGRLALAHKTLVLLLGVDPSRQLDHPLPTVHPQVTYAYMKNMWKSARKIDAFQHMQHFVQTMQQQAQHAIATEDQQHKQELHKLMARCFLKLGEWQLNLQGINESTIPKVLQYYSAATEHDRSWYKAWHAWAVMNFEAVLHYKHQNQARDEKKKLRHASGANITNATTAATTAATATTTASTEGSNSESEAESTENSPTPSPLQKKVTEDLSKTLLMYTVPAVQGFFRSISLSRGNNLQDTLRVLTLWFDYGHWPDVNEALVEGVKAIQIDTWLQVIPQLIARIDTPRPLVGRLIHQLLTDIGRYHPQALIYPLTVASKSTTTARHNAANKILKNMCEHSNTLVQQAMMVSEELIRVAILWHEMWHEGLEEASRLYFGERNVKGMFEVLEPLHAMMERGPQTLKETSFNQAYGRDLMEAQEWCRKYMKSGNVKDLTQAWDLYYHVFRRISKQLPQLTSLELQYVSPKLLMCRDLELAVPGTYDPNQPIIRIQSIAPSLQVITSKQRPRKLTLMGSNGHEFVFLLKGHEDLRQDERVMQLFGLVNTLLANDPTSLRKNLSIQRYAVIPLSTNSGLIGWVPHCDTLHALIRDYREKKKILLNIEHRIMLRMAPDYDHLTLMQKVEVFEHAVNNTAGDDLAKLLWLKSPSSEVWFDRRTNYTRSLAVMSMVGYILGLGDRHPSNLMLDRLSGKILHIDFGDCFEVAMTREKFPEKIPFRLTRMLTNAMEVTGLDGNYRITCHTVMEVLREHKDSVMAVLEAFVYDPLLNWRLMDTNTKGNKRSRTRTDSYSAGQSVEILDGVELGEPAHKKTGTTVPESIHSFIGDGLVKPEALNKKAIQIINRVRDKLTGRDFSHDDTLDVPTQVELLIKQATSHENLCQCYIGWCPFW

Src(T341M)(h) = Src(T341M)(h) (Homo sapiens, UniProt P12931, T341M)
SAPK2a(T106M)(h) = SAPK2a(T106M)(h) (Homo sapiens, UniProt Q16539, T106M)
SAPK2a(T106M)(h), sequence (Q16539 whole entry T106M): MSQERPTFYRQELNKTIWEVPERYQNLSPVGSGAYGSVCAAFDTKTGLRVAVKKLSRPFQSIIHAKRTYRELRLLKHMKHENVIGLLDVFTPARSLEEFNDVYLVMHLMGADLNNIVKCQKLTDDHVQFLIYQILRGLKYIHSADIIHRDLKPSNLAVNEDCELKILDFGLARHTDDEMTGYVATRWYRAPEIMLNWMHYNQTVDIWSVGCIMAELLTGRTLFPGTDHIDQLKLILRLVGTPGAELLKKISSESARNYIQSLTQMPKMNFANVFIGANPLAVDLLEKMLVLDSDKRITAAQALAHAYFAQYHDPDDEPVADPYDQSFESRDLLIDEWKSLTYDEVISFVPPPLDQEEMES

MARK1(h) = MARK1(h) (Homo sapiens, UniProt Q9P0L2)
MARK1(h), sequence (Q9P0L2 whole entry): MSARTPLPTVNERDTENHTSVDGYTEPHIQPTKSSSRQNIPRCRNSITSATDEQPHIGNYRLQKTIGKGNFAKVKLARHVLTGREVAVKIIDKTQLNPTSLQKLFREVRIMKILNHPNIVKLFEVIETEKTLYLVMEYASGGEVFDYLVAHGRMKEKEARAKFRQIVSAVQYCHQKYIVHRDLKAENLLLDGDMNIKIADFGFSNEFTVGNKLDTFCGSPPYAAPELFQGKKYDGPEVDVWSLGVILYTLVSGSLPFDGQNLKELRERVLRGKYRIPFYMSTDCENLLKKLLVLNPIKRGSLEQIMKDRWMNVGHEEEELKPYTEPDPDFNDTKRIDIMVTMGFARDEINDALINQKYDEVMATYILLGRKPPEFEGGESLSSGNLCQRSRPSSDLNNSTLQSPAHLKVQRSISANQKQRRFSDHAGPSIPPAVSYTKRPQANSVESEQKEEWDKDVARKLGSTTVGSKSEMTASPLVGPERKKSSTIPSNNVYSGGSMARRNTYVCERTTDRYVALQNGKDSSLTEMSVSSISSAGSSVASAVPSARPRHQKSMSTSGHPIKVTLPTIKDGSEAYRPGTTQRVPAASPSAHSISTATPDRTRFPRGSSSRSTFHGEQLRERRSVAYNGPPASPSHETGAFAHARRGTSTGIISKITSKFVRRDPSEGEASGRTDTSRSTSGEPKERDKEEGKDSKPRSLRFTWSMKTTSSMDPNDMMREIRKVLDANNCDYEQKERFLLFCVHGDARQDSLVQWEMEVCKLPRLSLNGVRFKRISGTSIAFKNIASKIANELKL

EphA5(h) = EphA5(h) (Homo sapiens, UniProt P54756)
EphA5(h), sequence (P54756 25-1037): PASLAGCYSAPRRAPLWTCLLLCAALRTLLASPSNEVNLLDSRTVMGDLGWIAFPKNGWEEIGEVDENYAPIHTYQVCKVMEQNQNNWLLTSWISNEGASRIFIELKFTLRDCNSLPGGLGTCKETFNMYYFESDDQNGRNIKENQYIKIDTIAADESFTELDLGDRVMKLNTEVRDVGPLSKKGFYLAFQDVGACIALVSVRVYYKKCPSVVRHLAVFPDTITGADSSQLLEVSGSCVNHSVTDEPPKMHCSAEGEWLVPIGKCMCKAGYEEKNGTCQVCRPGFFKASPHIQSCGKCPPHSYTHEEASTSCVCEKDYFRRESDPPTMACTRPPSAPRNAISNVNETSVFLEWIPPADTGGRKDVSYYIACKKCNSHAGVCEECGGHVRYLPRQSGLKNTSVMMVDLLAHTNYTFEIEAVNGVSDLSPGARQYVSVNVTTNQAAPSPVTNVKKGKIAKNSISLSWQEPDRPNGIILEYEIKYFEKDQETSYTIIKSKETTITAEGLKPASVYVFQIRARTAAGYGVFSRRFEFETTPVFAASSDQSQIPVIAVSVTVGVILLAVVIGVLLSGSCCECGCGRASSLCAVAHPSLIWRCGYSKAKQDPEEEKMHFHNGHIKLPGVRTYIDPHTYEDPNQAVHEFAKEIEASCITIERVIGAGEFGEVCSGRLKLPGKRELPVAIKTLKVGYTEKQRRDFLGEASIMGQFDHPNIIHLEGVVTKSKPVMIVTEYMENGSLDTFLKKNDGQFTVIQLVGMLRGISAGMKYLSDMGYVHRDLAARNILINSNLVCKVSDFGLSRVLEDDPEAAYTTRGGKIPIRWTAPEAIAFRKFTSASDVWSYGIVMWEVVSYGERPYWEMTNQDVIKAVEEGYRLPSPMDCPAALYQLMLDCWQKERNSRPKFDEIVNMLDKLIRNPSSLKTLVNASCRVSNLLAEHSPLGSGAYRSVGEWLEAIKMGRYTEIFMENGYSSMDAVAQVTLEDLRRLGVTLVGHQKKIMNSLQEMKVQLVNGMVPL

PKBβ(h), sequence (P31751 whole entry): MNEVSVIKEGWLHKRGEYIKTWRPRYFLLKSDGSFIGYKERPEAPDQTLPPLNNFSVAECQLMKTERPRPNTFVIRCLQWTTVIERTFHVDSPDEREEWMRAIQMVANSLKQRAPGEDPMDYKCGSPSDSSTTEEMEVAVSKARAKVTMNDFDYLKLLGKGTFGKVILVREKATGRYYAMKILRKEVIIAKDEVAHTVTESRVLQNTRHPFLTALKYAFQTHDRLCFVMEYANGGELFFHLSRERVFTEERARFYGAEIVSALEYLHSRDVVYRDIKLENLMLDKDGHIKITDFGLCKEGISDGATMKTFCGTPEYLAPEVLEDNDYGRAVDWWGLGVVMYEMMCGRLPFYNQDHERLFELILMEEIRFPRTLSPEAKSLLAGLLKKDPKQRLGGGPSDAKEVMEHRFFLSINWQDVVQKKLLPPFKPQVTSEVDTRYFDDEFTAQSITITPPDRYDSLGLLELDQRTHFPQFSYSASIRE

Sequence | % activity (PKBβ(h)) [%] | % activity (EphA1(h)) [%] | % activity (PKCδ(h)) [%] | % activity (IGF-1R(h), activated) [%] | % activity (BrSK2(h)) [%] | % activity (Met(D1246N)(h)) [%] | % activity (mTOR/FKBP12(h)) [%] | % activity (Src(T341M)(h)) [%] | % activity (SAPK2a(T106M)(h)) [%] | % activity (MARK1(h)) [%] | % activity (EphA5(h)) [%]
FAKLAARLYRKALARQLGVAA [MMI-0300] | 84 | 73 | 101 | 80 | 83 | 82 | 145 | 70 | 97 | 132 | 18
HRRIKAWLKKIKALARQLGVAA [MMI-0500] | 21 | 40 | 61 | 45 | 84 | 90 | 140 | 59 | 32 | 110 | 42
KAFAKLAARLYRKALARQLGVAA [MMI-0400] | 98 | 61 | 90 | 77 | 86 | 31 | 125 | 76 | 99 | 120 | 24
YARAAARQARAKALNRQLGVA [MMI-0200] | 250 |  | 101 | 94 |  | 149 | 118 | 56 | 100 |  | 123
